Data reported in patent publication US20220064324A1 (US Dept. of Health and Human Services, published 2022).
Numbering of substitutions follows the chain as printed.

Tests used:
[1] = molecular target: T1, human mesothelin Fragment 1 (residues 296-390) (human, UniProt Q13421 296-390); assay: ELISA on mesothelin Region I, VHH concentration not given
T1 construct: also called Region I
T1 chain: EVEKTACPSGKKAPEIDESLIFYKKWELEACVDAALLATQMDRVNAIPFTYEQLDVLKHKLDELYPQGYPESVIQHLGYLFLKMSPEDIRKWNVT

[2] = molecular target: T2, human mesothelin Region IAB (296-359) (human, UniProt Q13421 296-359); assay: ELISA on mesothelin Region IAB, VHH concentration not given
T2 construct: also called IAB domain
T2 chain: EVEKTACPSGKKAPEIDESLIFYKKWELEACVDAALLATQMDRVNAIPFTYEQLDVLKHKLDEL

[3] = molecular target: T3, human mesothelin Region IAB Y318A mutant (human, UniProt Q13421 296-359); assay: ELISA on Region IAB mutant Y318A, VHH concentration not given
T3 chain: T2 chain with Y23A

B1: A101 camel single-domain (VHH) monoclonal antibody (VHH)
VHH: QVQLVESGGGTVQAGGSLKLACAASGLPRTYNVMGWFRQAPGKEREGVAIIYTTTGATYYRDSVKGRATISQDNAKKSVSLQMNSLRPEDTAIYYCVARQPNSGPWEYWGQGTQVTVSS
notes: Isolated from a camel VHH phage display library; also called A101 antibody; A101 anti-mesothelin VHH antibody
- binding result [1]: binds
- binding result [2]: binds
- binding result [3]: no binding

B2: G8 camel single-domain (VHH) monoclonal antibody (VHH)
VHH: QVKLEESGGGSVQAGGSLRLSCTTSGYTNSYKWMGWFRQAPGQEREGVAVIYTGNDRTYYSDSVKGRFTISRDNAKNMIYLDMTRLRPEDSAVYECAIGHDGAWRYWGQGTQVTVSS
notes: Isolated from a camel VHH phage display library; also called G8 antibody; G8 anti-mesothelin VHH antibody
- binding result [1]: binds
- binding result [2]: binds
- binding result [3]: no binding
